Reference: the RNAGym collection of RNA variant scans (doi:10.7554/elife.90254)

B1: OR4K15 (parent)
chain: GUUAACGGUCAUAGGCCAUGGAAACUAGGAGCACCAUUUCGCUGCCAGUGAAGAAAUGAACAAAGAAAAUCUGGGCCAGGCAGGCAUCAAAAGAAAUAGUCUUGCGCUCAACCAGAAAGUCUGUAAUCAUUUUAAGGGUA

Variants of: B1
Assay: self-cleavage, relative activity (ratio to wild type); higher = more cleavage; in vitro, sequencing; the parent is a self-cleaving ribozyme

Row | Variant | self-cleavage
1 | GUUAACGGUCAUAGGCCAUGGAAACUAGGAGCACCAUUCCGCUGCCAGUGAAGAAGUGAACAAAGAAAAUCUGGGCCAGGCAGGCAUCAAAAGAAAUAGUCUUGCGCUCAACCAGAAAGUCUGUAAUCAUUUUAAGGGUA [U39C A56G] | 0.89
2 | GUUAACGGUCAUAGGCCAUGGAAACUAGGAGCACCAUUCCGCUGCCAGUGAAGAACUGAACAAAGAAAAUCUGGGCCAGGCAGGCAUCAAAAGAAAUAGUCUUGCGCUCAACCAGAAAGUCUGUAAUCAUUUUAAGGGUA [U39C A56C] | 0.43
3 | GUUAACGGUCAUAGGCCAUGGAAACUAGGAGCACCAUUCCGCUGCCAGUGAAGAAAUGAACAAAGAAAAUCUGGGCCAGGCAGGCAUCAAAAGAAAUAGUCUUGCGCUCAACCAGAAAGUCUGUAAUCUUUUUAAGGGUA [U39C A129U] | 1.16
4 | GUUAACGGUCAUAGGCCAUGGAAACUAGGAGCACCAUUCCGCUGCCAGUGAAGAAAUGAACAAAGAAAAUCUGGGCCAGGCAGGCAUCAAAAGAAAUAGUCUUGCGCUCAACCAGAAAGUCUGUAAUCGUUUUAAGGGUA [U39C A129G] | 1.7
5 | GUUAACGGUCAUAGGCCAUGGAAACUAGGAGCACCAUUCCGCUGCCAGUGAAGAAAUGAACAAAGAAAAUCUGGGCCAGGCAGGCAUCAAAAGAGAUAGUCUUGCGCUCAACCAGAAAGUCUGUAAUCAUUUUAAGGGUA [U39C A95G] | 1.53
6 | GUUAACGGUCAUAGGCCAUGGAAACUAGGAGCACCAUUCCGCUGCCAGUGAAGAAAUGAACAAAGGAAAUCUGGGCCAGGCAGGCAUCAAAAGAAAUAGUCUUGCGCUCAACCAGAAAGUCUGUAAUCAUUUUAAGGGUA [U39C A66G] | 0.08
7 | GUUAACGGUCAUAGGCCAUGGAAACUAGGAGCACCAUUCCGCUGCCAGUGAAGAAAUGAACAAAGAAAAUCUGGGCCAGGCAGGCAUCAAAAGAAAUAGUCUUGCGCUCUACCAGAAAGUCUGUAAUCAUUUUAAGGGUA [U39C A110U] | 1.06
8 | GUUAACGGUCAUAGGCCAUGGAAACUAGGAGCACCAUUCCGCUGCCAGUGAAGAAAUGAACAAAGAAAAUCUGGGCCAGGCAGGCAUCAAAAGGAAUAGUCUUGCGCUCAACCAGAAAGUCUGUAAUCAUUUUAAGGGUA [U39C A94G] | 1.34
9 | GUUAACGGUCAUAGGCCAUGGAAACUAGGAGCACCAUUCCGCUGCCAGUGAAGAAAUGAACAAAGAAAAUCUGGGCCAGGCAGGCAUCAAAAGCAAUAGUCUUGCGCUCAACCAGAAAGUCUGUAAUCAUUUUAAGGGUA [U39C A94C] | 1.43
10 | GUUAACGGUCAUAGGCCAUGGAAACUAGGAGCACCAUUCCGCUGCCAGUGAAGAAAUGAACAAAGAAAGUCUGGGCCAGGCAGGCAUCAAAAGAAAUAGUCUUGCGCUCAACCAGAAAGUCUGUAAUCAUUUUAAGGGUA [U39C A69G] | 1.37
11 | GUUAACGGUCAUAGGCCAUGGAAACUAGGAGCACCAUUCCGCUGCCAGUGAAGAAAUGAACAAAGAAAAUCUGGGCCAGGCAGGCAUCCAAAGAAAUAGUCUUGCGCUCAACCAGAAAGUCUGUAAUCAUUUUAAGGGUA [U39C A89C] | 1.38
12 | GUUAACGGUCAUAGGCCAUGGAAACUAGGAGCACCAUUCCGCUGCCAGUGAAGAAAUGAACAAAGAAAAUCUGGGCCAGGCAGGCAUCGAAAGAAAUAGUCUUGCGCUCAACCAGAAAGUCUGUAAUCAUUUUAAGGGUA [U39C A89G] | 1.73
13 | GUUAACGGUCAUAGGCCAUGGAAACUAGGAGCACCAUUCCGCUGCCAGUGAAGAAAUGAACAAAGAAAAUCUGGGCCAGGCAGGCAUCAAGAGAAAUAGUCUUGCGCUCAACCAGAAAGUCUGUAAUCAUUUUAAGGGUA [U39C A91G] | 1.4
14 | GUUAACGGUCAUAGGCCAUGGAAACUAGGAGCACCAUUCCGCUGCCAGUGAAGAAAUGAACUAAGAAAAUCUGGGCCAGGCAGGCAUCAAAAGAAAUAGUCUUGCGCUCAACCAGAAAGUCUGUAAUCAUUUUAAGGGUA [U39C A62U] | 1.95
15 | GUUAACGGUCAUAGGCCAUGGAAACUAGGAGCACCAUUCCGCUGCCAGUGAAGAAAUGAACGAAGAAAAUCUGGGCCAGGCAGGCAUCAAAAGAAAUAGUCUUGCGCUCAACCAGAAAGUCUGUAAUCAUUUUAAGGGUA [U39C A62G] | 0.75
16 | GUUAACGGUCAUAGGCCAUGGAAACUAGGAGCACCAUUCCGCUGCCAGUGAAGAAAUGAACAAUGAAAAUCUGGGCCAGGCAGGCAUCAAAAGAAAUAGUCUUGCGCUCAACCAGAAAGUCUGUAAUCAUUUUAAGGGUA [U39C A64U] | 1.77
17 | GUUAACGGUCAUAGGCCAUGGAAACUAGGAGCACCAUUCCGCUGCCAGUGAAGAAAUGAACAACGAAAAUCUGGGCCAGGCAGGCAUCAAAAGAAAUAGUCUUGCGCUCAACCAGAAAGUCUGUAAUCAUUUUAAGGGUA [U39C A64C] | 1.88
18 | GUUAACGGUCAUAGGCCAUGGAAACUAGGAGCACCAUUCCGCUGCCAGUGAAGAAAUGAACAAAGAAAAUCUGGGCCAGGCAGGCAUCAAAAGAAAUAGUCUUGCGCUCAACCAGAAGGUCUGUAAUCAUUUUAAGGGUA [U39C A118G] | 1.71
19 | GUUAACGGUCAUAGGCCAUGGAAACUAGGAGCACCAUUCCGCUGCCAGUGACGAAAUGAACAAAGAAAAUCUGGGCCAGGCAGGCAUCAAAAGAAAUAGUCUUGCGCUCAACCAGAAAGUCUGUAAUCAUUUUAAGGGUA [U39C A52C] | 1.78
20 | GUUAACGGUCAUAGGCCAUGGAAACUAGGAGCACCAUUCCGCUGCCAGUGAGGAAAUGAACAAAGAAAAUCUGGGCCAGGCAGGCAUCAAAAGAAAUAGUCUUGCGCUCAACCAGAAAGUCUGUAAUCAUUUUAAGGGUA [U39C A52G] | 1.76
21 | GUUAACGGUCAUAGGCCAUGGAAACUAGGAGCACCAUUCCGCUGCCAGUGAAGAAAUGAACAAAGAAAAUCUGGGCCAGGCGGGCAUCAAAAGAAAUAGUCUUGCGCUCAACCAGAAAGUCUGUAAUCAUUUUAAGGGUA [U39C A82G] | 0.67

Row | Variant | self-cleavage
22 | GUUAACGGUCAUAGGCCAUGGAAACUAGGAGCACCAUUCCGCUGCCAGUGAAGAAAUGAACAAAGAAUAUCUGGGCCAGGCAGGCAUCAAAAGAAAUAGUCUUGCGCUCAACCAGAAAGUCUGUAAUCAUUUUAAGGGUA [U39C A68U] | 2.09
23 | GUUAACGGUCAUAGGCCAUGGAAACUAGGAGCACCAUUCCGCUGCCAGUGAAGAAAUGAACAAAGAAAAUCUGGGCCAGGCAGGCAUCAAAAGAAAUAGUCUUGCGCUCAACCAGUAAGUCUGUAAUCAUUUUAAGGGUA [U39C A116U] | 0.23
24 | GUUAACGGUCAUAGGCCAUGGAAACUAGGAGCACCAUUCCGCUGCCAGUGAAGAAAUGACCAAAGAAAAUCUGGGCCAGGCAGGCAUCAAAAGAAAUAGUCUUGCGCUCAACCAGAAAGUCUGUAAUCAUUUUAAGGGUA [U39C A60C] | 2.05
25 | GUUAACGGUCAUAGGCCAUGGAAACUAGGAGCACCAUUCCGCUGCCAGUGAAGAAAUGAUCAAAGAAAAUCUGGGCCAGGCAGGCAUCAAAAGAAAUAGUCUUGCGCUCAACCAGAAAGUCUGUAAUCAUUUUAAGGGUA [U39C A60U] | 1.88
26 | GUUAACGGUCAUAGGCCAUGGAAACUAGGAGCACCAUUCCGCUGCCAGUGAAGGAAUGAACAAAGAAAAUCUGGGCCAGGCAGGCAUCAAAAGAAAUAGUCUUGCGCUCAACCAGAAAGUCUGUAAUCAUUUUAAGGGUA [U39C A54G] | 0.69
27 | GUUAACGGUCAUAGGCCAUGGAAACUAGGAGCACCAUUCCGCUGCCAGUGAAGAAAUGAACAAAGAAAAUCUGGGCCAGGCAGGCGUCAAAAGAAAUAGUCUUGCGCUCAACCAGAAAGUCUGUAAUCAUUUUAAGGGUA [U39C A86G] | 1.19
28 | GUUAACGGUCAUAGGCCAUGGAAACUAGGAGCACCAUUCCGCUGCCAGUGAAGAAAUGAACAAAGAAAAUCUGGGCCAGGCAGGCUUCAAAAGAAAUAGUCUUGCGCUCAACCAGAAAGUCUGUAAUCAUUUUAAGGGUA [U39C A86U] | 2.13
29 | GUUAACGGUCAUAGGCCAUGGAAACUAGGAGCACCAUUCCGCUGCCAGUGAAGAUAUGAACAAAGAAAAUCUGGGCCAGGCAGGCAUCAAAAGAAAUAGUCUUGCGCUCAACCAGAAAGUCUGUAAUCAUUUUAAGGGUA [U39C A55U] | 2.15
30 | GUUAACGGUCAUAGGCCAUGGAAACUAGGAGCACCAUUCCGCUGCCAGUGAAGAAAUGAACAAAGAAAAUCUGGGCCAGGCAGGCAUCAAAAGAAAUAGUCUUGCGCUCAACCAGAAAGUCUGUAAUCAUUUUUAGGGUA [U39C A134U] | 1.21
31 | GUUAACGGUCAUAGGCCAUGGAAACUAGGAGCACCAUUCCGCUGCCAGUGAAGAAAUGAACAAAGAAAAUCUGGGCCAGGCAGGCAUCAAAAGAAAUAGUCUUGCGCUCAACCAGAAAGUCUGUGAUCAUUUUAAGGGUA [U39C A125G] | 0.66
32 | GUUAACGGUCAUAGGCCAUGGAAACUAGGAGCACCAUUCCGCUGCCAGUGAAGAAAUGAACAAAGAAAAUCUGGGCCAGGCAGGCAUCAAAAGAAAUAGUCUUGCGCUCAACCUGAAAGUCUGUAAUCAUUUUAAGGGUA [U39C A114U] | 0.1
33 | GUUAACGGUCAUAGGCCAUGGAAACUAGGAGCACCAUUCCGCUGCCAGUGAAGAAAUGAACAAAGAAAAUCUGGGCCAGGCAGGCAUCAGAAGAAAUAGUCUUGCGCUCAACCAGAAAGUCUGUAAUCAUUUUAAGGGUA [U39C A90G] | 0.84
34 | GUUAACGGUCAUAGGCCAUGGAAACUAGGAGCACCAUUCCGCUGCCAGUGAAGAAAUGAACAAAGAAAAUCUGGGCCAGGCAGGCAUCAAAGGAAAUAGUCUUGCGCUCAACCAGAAAGUCUGUAAUCAUUUUAAGGGUA [U39C A92G] | 1.3
35 | GUUAACGGUCAUAGGCCAUGGAAACUAGGAGCACCAUUCCGCUGCCAGUGAAGAAAUGAACAAAGAAAAUCUGGGCCAGGCAGGCAUCAAAUGAAAUAGUCUUGCGCUCAACCAGAAAGUCUGUAAUCAUUUUAAGGGUA [U39C A92U] | 1.99
36 | GUUAACGGUCAUAGGCCAUGGAAACUAGGAGCACCAUUCCGCUGCCAGUGAAGAAAUGAACAAAGAAAAUCUGGGCCAGGCAGGCAUCAAAAGAAAUAGUCUUGCGCUCAACCAGAUAGUCUGUAAUCAUUUUAAGGGUA [U39C A117U] | 1.08
37 | GUUAACGGUCAUAGGCCAUGGAAACUAGGAGCACCAUUCCGCUGCCAGUGAAGAAAUGAACAAAGAAAAUCUGGGCCAGGCAGGCAUCAAAAGAAAUAGUCUUGCGCUCAACCAGAGAGUCUGUAAUCAUUUUAAGGGUA [U39C A117G] | 1.95
38 | GUUAACGGUCAUAGGCCAUGGAAACUAGGAGCACCAUUCCGCUGCCGGUGAAGAAAUGAACAAAGAAAAUCUGGGCCAGGCAGGCAUCAAAAGAAAUAGUCUUGCGCUCAACCAGAAAGUCUGUAAUCAUUUUAAGGGUA [U39C A47G] | 1.25
39 | GUUAACGGUCAUAGGCCAUGGAAACUAGGAGCACCAUUCCGCUGCCAGUGAAGAAAUGUACAAAGAAAAUCUGGGCCAGGCAGGCAUCAAAAGAAAUAGUCUUGCGCUCAACCAGAAAGUCUGUAAUCAUUUUAAGGGUA [U39C A59U] | 1.98
40 | GUUAACGGUCAUAGGCCAUGGAAACUAGGAGCACCAUUCCGCUGCCAGUGAAGAAAUGGACAAAGAAAAUCUGGGCCAGGCAGGCAUCAAAAGAAAUAGUCUUGCGCUCAACCAGAAAGUCUGUAAUCAUUUUAAGGGUA [U39C A59G] | 1.51
41 | GUUAACGGUCAUAGGCCAUGGAAACUAGGAGCACCAUUCCGCUGCCAGUGUAGAAAUGAACAAAGAAAAUCUGGGCCAGGCAGGCAUCAAAAGAAAUAGUCUUGCGCUCAACCAGAAAGUCUGUAAUCAUUUUAAGGGUA [U39C A51U] | 2.29
